Assay results: paper PMC3229523, “Identification of Lactoferricin B Intracellular Targets Using an Escherichia coli Proteome Chip” (PLoS ONE, 2011)
Ends that are not written are not given here. * marks the point of attachment. Biotin = O=C1N[C@H]2[C@H](CS[C@H]2CCCCC(=O)*)N1

Key:
Test in all cases: peptide or protein array; E. coli proteome chip: purified His-tagged proteins printed in duplicate on Fullmoon slides, blocked with 1% BSA; 10 nM N-terminal biotinylated LfcinB with 1% BSA, room temperature, 1 h; detected with DyLight 649-labeled streptavidin, ratio to DyLight 549-labeled anti-His antibody; ProCAT normalisation, local cut-off; triplicate chips
Conditions in all cases: both partners purified
YciW = target: T1, YciW (E. coli K-12, UniProt P76035 1-375)
T1 construct: YciW, E. coli K-12
T1 sequence (looked up): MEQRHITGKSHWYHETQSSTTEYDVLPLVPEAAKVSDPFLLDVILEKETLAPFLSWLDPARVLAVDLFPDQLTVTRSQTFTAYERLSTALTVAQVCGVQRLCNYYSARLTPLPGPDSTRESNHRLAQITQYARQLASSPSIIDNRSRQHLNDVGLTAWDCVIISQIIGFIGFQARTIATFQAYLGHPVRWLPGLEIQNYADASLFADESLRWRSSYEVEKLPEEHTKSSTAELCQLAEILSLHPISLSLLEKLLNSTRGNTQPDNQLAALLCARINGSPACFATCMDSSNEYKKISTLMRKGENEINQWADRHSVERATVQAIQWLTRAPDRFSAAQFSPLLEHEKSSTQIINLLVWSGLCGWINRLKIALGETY

YjhI = target: T2, YjhI (E. coli K-12, UniProt P39360 1-262)
T2 construct: YjhI, E. coli K-12
T2 sequence (looked up): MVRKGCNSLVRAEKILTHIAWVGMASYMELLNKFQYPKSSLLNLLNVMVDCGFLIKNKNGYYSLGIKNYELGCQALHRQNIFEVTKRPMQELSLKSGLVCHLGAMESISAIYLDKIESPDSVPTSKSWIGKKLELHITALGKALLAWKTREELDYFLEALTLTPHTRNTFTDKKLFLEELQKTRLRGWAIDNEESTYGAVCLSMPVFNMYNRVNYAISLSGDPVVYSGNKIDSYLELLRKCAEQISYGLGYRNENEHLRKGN

YdhS = target: T3, YdhS (E. coli K-12, UniProt P77148 1-534)
T3 construct: YdhS, E. coli K-12
T3 sequence (looked up): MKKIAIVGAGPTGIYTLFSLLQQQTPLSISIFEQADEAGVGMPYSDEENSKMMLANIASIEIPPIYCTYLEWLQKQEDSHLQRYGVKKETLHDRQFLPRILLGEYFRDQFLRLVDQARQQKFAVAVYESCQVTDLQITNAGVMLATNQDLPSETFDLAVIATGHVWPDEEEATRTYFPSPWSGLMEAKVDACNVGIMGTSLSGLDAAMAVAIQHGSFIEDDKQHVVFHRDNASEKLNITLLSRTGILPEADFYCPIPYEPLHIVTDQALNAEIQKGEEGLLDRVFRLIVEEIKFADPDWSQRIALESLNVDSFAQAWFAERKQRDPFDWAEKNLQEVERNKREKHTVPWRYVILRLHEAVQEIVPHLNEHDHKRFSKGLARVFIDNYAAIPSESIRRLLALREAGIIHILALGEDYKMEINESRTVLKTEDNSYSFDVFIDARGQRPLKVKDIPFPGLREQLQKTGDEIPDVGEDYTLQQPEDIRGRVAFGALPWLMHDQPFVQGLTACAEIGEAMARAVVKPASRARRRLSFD

YehS = target: T4, YehS (E. coli K-12, UniProt P33355 1-156)
T4 construct: YehS, E. coli K-12
T4 sequence (looked up): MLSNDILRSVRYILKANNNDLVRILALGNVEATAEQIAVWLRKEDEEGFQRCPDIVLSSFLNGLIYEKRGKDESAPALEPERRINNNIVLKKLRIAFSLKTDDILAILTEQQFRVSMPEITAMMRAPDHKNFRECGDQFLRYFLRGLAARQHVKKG

FimZ = target: T5, FimZ (E. coli K-12, UniProt P0AEL8 1-210)
T5 construct: FimZ, E. coli K-12
T5 sequence (looked up): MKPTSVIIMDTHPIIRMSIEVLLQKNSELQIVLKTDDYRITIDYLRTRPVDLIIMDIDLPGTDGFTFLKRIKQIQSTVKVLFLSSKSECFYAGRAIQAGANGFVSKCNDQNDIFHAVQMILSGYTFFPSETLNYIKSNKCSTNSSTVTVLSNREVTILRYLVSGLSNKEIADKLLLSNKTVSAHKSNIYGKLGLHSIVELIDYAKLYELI

YfbR = target: T6, YfbR (E. coli K-12, UniProt P76491 1-199)
T6 construct: YfbR, E. coli K-12
T6 sequence (looked up): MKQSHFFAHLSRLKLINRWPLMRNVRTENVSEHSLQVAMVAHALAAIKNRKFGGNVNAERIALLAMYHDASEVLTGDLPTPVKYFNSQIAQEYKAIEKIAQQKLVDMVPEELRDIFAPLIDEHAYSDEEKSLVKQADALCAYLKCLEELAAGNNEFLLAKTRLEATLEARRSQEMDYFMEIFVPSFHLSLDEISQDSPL

Measured: binding result

B1: N-terminal biotinylated Lactoferricin B (peptide, UniProt P24627 36-60, looked up)
peptide: Biotin-FKCRRWQWRMKKLGAPSITCVRRAF
modifications: ends and bridges not checked
notes: lactoferricin B (LfcinB), cationic antimicrobial peptide of 25 amino acids; also called biotinylated LfcinB; biotin-labeled LfcinB; source: bought: Kelowna Inc
binds: all assays above
